The values below come from the DeepSol protein solubility set.

The data set is described as follows: soluble on expression in E. coli; label from the status in PepcDB or PDB records.
“MFERNREATMIFNIQRYSTHDGPGIRTVVFLKGCSLGCRWCQNPESRARTQDLLYDPRLCLEGCKLCAKTAPEVIERALNGLLIHREKLTPEHFTALTDCCPTQALTVCGEVKSVEEIMATVLRDKPFYDRSGGGLTLSGGEPFMQPEMATALLQASHEAGIHTAVETCLHVPWKYIAPSLPYIDLFLADLKHVADAPFKQWTDGNAARVLDNLKKLAAAGKKIIIRVPLIQGFNADETSVKAITDFAADELHVSEIHFLPYHTLGINKYHLLNLPYDAPEKPLDAPELLDFAQQYACQKGLTATLRG”: the “soluble on expression in E. coli” value is on record as “not soluble”. On to “MGSDKIHHHHHHMSDFHHGVQVVEINDGTRVISTVSTAIIGMVCTASDADAATFPLNKPALITSVQSAIAKAGTKGTLAASLQAIADQSKPVIVVVRVAEGTGDDAEAQTISNIIGGTDESGNYTGLKALLTAEAVTGVKPRILGVPGLDSLEVATALAPICQKLRAFGYISAWDCQNISEAMLYRENFSQRELMVIWPDFLAWDTTANATETVWATARALGLRAKIDQDTGWHKTLSNVGVNGVTGISASVFWDLQESGTDADLLNEAGVTTLIRKDGFRFWGNRCCSDDPLFLFENYTRTAQVIADTMAAGHMWAVDKPITATLIKDIVAGINAKFREMKTAGYIVDATCWFDESANDAATLKAGKLYIDYDYTPVPPLENLTLRQRITDKYLANLVSSVNSN”, for which the “soluble on expression in E. coli” value was “not soluble”. For “MGSDKIHHHHHHMQYNFKVEAFEGPLDLLLHLIHRYEIDIYNIPVAEITEQYLSYVHTMKELQLDVASEYLVMAATLLQIKSKMLLPKHEEDVLDNGDDFIDDPRQELMERLIEYKKYKQVATELKEREQERAQLYTRPPIDFTSLQQEEETSLPLDVTLYDMLAAFQKLMRRKKAKKPVTTRITRQEIPIEQRMTDILKQLEIQGGRQSFYDLFVDDEREIMVVTFLAVLELMKNQQIVIEQEHNFDEIFVSSYTKSA” the value was “not soluble”. In the case of “MAAQVTLEDALSNVDLLEELPLPDQQPCIEPPPSSLLYQPNFNTNFEDRNAFVTGIARYIEQATVHSSMNEMLEEGQEYAVMLYTWRSCSRAIPQVKCNEQPNRVEIYEKTVEVLEPEVTKLMNFMYFQRNAIERFCGEVRRLCHAERRKDFVSEAYLITLGKFINMFAVLDELKNMKCSVKNDHSAYKRAAQFLRKMADPQSIQESQNLSMFLANHNKITQSLQQQLEVISGYEELLADIVNLCVDYYENRMYLTPSEKHMLLKVMGFGLYLMDGSVSNIYKLDAKKRINLSKIDKYFKQLQVVPLFGDMQIELARYIKTSAHYEENKSRWTCTSSGSSPQYNICEQMIQIREDHMRFISELARYSNSEVVTGSGRQEAQKTDAEYRKLFDLALQGLQLLSQWSAHVMEVYSWKLVHPTDKYSNKDCPDSAEEYERATRYNYTSEEKFALVEVIAMIKGLQVLMGRMESVFNHAIRHTVYAALQDFSQVTLREPLRQAIKKKKNVIQSVLQAIRKTVCDWETGHEPFNDPALRGEKDPKSGFDIKVPRRAVGPSSTQLYMVRTMLESLIADKSGSKKTLRSSLEGPTILDIEKFHRESFFYTHLINFSETLQQCCDLSQLWFREFFLELTMGRRIQFPIEMSMPWILTDHILETKEASMMEYVLYSLDLYNDSAHYALTRFNKQFLYDEIEAEVNLCFDQFVYKLADQIFAYYKVMAGSLLLDKRLRSECKNQGATIHLPPSNRYETLLKQRHVQLLGRSIDLNRLITQRVSAAMYKSLELAIGRFESEDLTSIVELDGLLEINRMTHKLLSRYLTLDGFDAMFREANHNVSAPYGRITLHVFWELNYDFLPNYCYNGSTNRFVRTVLPFSQEFQRDKQPNAQPQYLHGSKALNLAYSSIYGSYRNFVGPPHFQVICRLLGYQGIAVVMEELLKVVKSLLQGTILQYVKTLMEVMPKICRLPRHEYGSPGILEFFHHQLKDIVEYAELKTVCFQNLREVGNAILFCLLIEQSLSLEEVCDLLHAAPFQNILPRVHVKEGERLDAKMKRLESKYAPLHLVPLIERLGTPQQIAIAREGDLLTKERLCCGLSMFEVILTRIRSFLDDPIWRGPLPSNGVMHVDECVEFHRLWSAMQFVYCIPVGTHEFTVEQCFGDGLHWAGCMIIVLLGQQRRFAVLDFCYHLLKVQKHDGKDEIIKNVPLKKMVERIRKFQILNDEIITILDKYLKSGDGEGTPVEHVRCFQPPIHQSLASS” it was “not soluble”; in that of “MVEPQHNVMQMGGDFANNPNAQQFIDKMVNKHGFDRQQLQEILSQAKRLDSVLRLMDNQAPTTSVKPPSGPNGAWLRYRKKFITPDNVQNGVVFWNQYEDALNRAWQVYGVPPEIIVGIIGVETRWGRVMGKTRILDALATLSFNYPRRAEYFSGELETFLLMARDEQDDPLNLKGSFAGAMGYGQFMPSSYKQYAVDFSGDGHINLWDPVDAIGSVANYFKAHGWVKGDQVAVMANGQAPGLPNGFKTKYSISQLAAAGLTPQQPLGNHQQASLLRLDVGTGYQYWYGLPNFYTITRYNHSTHYAMAVWQLGQAVALARVQ”, “soluble”.

On to “MRTVVVIPTYNERDTIERLINDVLAQDKDIHVLVVDDNSPDGTGEIVDRLSEGKGRVHVLHRPGKMGLGSAYRQGFAAALAMDADFIVEMDADYSHDPATLPRFLEAMEGCDLVIGSRYLNGISVVNWPLRRLMLSYFANWYTRLITGLRIMDCTSGFKCFRRRVIESIDMSTIRSDGYSFQIEMNYRCVEKGFQVREIPIIFIDRRSGSSKMSKKIVREAVFMVWKLKLGSVFGALFRLEHHHHHH”, for which the “soluble on expression in E. coli” value is reported as “not soluble”.

For “MGSDKIHHHHHHMALPKKLKALNLFNNGESYLGQVVEVKLPTLSRKMEEYRGGGMNGPVDIDFGQEKIELEWKCGGMMRSVLNQYGATTHNAVQLRFAGSYQRDDSGAVDAVEFVVRGRHKEIDPGTGKSGDDTEFSVKTSASYYKLMINGSTVIEIDLMNMIEIVNGVDLLAPHRRAIGA”, the “soluble on expression in E. coli” value is given as “not soluble”. In the case of “MNMAEVSKNQVEKALETVIYPGSGKNIVALGMVSEIFIADAKAYFSITVPADKASEMEPLRLAAERAAKSVEGIAGAVVALTADRKPGQQQPAPAGPTPARPAAATGRPAAAPGRPTPQPGSSKVGVPGVRAIIAVASGKGGVGKSTTAVNLALGLQALGLKVGMLDADIYGPSLPRLLKISGRPKQQEDRIILPMENYGLKVMSMGFLVDEEAAMIWRGPMVQSALMQMLREVAWGELDVLVLDMPPGTGDAQLTIAQQVPLAGAVIVSTPQDLALLDARKGITMFRKVEVPLLGVIENMSYFIAPDTGARYDIFGHGGAKAEAERIGVPFLGEVPLTISIREMSDAGTPVVVAEPDGPQAAIYREIAEKVWARMGADERKAAPKIVFELEHHHHHH” it was “not soluble”; in that of “MEWILFDKDGTLIEFDRSWEKIGVRFVQSLLETFPVHNKEAALRQLGVIKESIDPKSVMGSGSLQQIIQAFNDVTGQDTTDWSKSTSQKLVDERIPEINWVEGVKEALIDLKAKGYQLGIVTSDTKKGVEQFLAHTNAISLFDLIISTEADAYEKPNPKVLSPLFEQYNVDPQKVAIVGDTANDMKTASNANLGMAIGVLTGIATKEELHEADIILNSAADILEALN”, “not soluble”. In the case of “SPASGPGPRRVQRRAWPPDKEQEKEKKSVICVEGNIASGKTTCLEFFSNATDVEVLTEPVSKWRNVRGHNPLGLMYHDASRWGLTLQTYVQLTMLDRHTRPQVSSVRLMERSIHSARYIFVENLYRSGKMPEVDYVVLSEWFDWILRNMDVSVDLIVYLRTNPETCYQRLKKRCREEEKVIPLEYLEAIHHLHEEWLIKGSLFPMAAPVLVIEADHHHMERMLELFEQNRDRILTPENRKHCP” it was “soluble”; in that of “MLPCRANCFTLEISLMHINIAWQDVDTVLLDMDGTLLDLAFDNYFWQKLVPETWGAKNGVTPQEAMEYMRQQYHDVQHTLNWYCLDYWSEQLGLDICAMTTEMGPRAVLREDTIPFLEALKASGKQRILLTNAHPHNLAVKLEHTGLDAHLDLLLSTHTFGYPKEDQRLWHAVAEATGLKAERTLFIDDSEAILDAAAQFGIRYCLGVTNPDSGIAEKQYQRHPSLNDYRRLIPSLM”, “not soluble”; in that of “MRRLLLLVILFGCMSVINLAAGCNAQICTCPGGGYVTYGQYCPVNTPSYSAPPDAPPVDMYYFILDIKNNSYQLVDLKTKNFLTALDRSLSCDRSTQVCTVVSIREYLAVVVSEDNRLFIGKADAFYKGTGKKAEKAAIDDCKKGKEANGNGVMGDGIKGKKCRLIRLFSPNFKLENIETKQKYDLKVTGSL”, “not soluble”. In the case of “MAYQVTTFYHFTRLNCLAEKQSRWQELGDRLGLKGTILLAEEGVNATIAGESAAIEEMVKIMAADLGLTSVPQRHSWAKTIPFQRMKVKIKPEIVSLGQPQVNPEKQVGTYVSPQQWNQLLQDPDVVVIDTRNDYEVAIGTFQGAVNPCTKKFRQFPDYVKNNLDQQKNKKVAMFCTGGIRCEKASAYLLEEGFAEVYHLRGGILHYLETIAPEESLWQGECFVFDERVAVQEGLKVGSHALCDHCGYPLRVGDLAEIRYAVRHCPQCGLTVAVSNELLEHHHHHH”, the “soluble on expression in E. coli” value was “soluble”.

For the sequence “MCAHEGKQYKNDTTFISQGSFRMKCVTFKNLTSTLEVISCITPAGVEISIGTQLEEGDKVFECTPGNVTLKSTPGQTGKCRGVYSVGDTWVEDSFRLLCEPYGKVNLKSCISKEGVEIPLGEARRVPAGYAMECVTVNGNVALQTAKTFDCETGTGEIKKFGDTWNEGNFVRRCANYGVSAIIGCYADGVGSIGLNQNMTSGDFLYMCINQNEQFKFRTLKAT”, the “soluble on expression in E. coli” value is reported as “not soluble”. For “MSLKIIILGAGQVGGTLAENLAGENNDITIVDTDSDRLRELQDKFDLRVVNGHGAHPKVLREAGAQDADMLVAVTNSDETNMVACQVAYSLFNTPNKVARIRSPAYLVERDRLFLPESVPVDHLIAPEQLVTDYVRRLIEYPGALQVVDFAGGKVGLVAVKAYYGGPLVGNALSTLRDHMPNIETRVAAIFRQGRSIRPQGTTIIEADDEVFFVAAAGHIRAVMSELQRLESPYRRIMIVGGGNIGAGLARQLEKRYSVKLIERNQKRAEQLSEVLENTIVFCGDAADQELLAEEHIDQIDVFIAVTNEDEANIMSALLAKKMGAKKTMVLIQRSAYVDLVQGGSIDIAISPQQATISALLTHVRRADIANVYSLRRGAAEAIEAIAHGDENTSKVVGKTVGELKLPPGTTIGAIVRGDEVLIAHDRTQIQQDDHVVMFLVDKKYIPEVERLFQPSPFFLEGHHHHHH” the value was “soluble”; for “GSHMQPMQAMKIERGTILTQPGVFGVFTMFKLRPDWNKVPAMERKGAAEEVKKLIEKHKDNVLVDLYLTRGLETNSDFFFRINAYDLAKAQTFMREFRSTTIGKNADVFETLVGVTKPLNYISKDKSPGLNAGLSSATYSGPAPRYVIVIPVKKNAEWWNMSPEERLKEMEVHTTPTLAYLVNVKRKLYHSTGLDDTDFITYFETDDLTAFNNLMLSLAQVKENKFHVRWGSPTTLGTIHSPEDVIKALAD”, “soluble”. In the case of “MKTRTQQIEELQKEWTQPRWEGITRPYSAEDVVKLRGSVNPECTLAQLGAAKMWRLLHGESKKGYINSLGALTGGQALQQAKAGIEAVYLSGWQVAADANLAASMYPDQSLYPANSVPAVVERINNTFRRADQIQWSAGIEPGDPRYVDYFLPIVADAEAGFGGVLNAFELMKAMIEAGAAAVHFEDQLASVKKCGHMGGKVLVPTQEAIQKLVAARLCADVTGVPTLLVARTDADAADLITSDCDPYDSEFITGERTSEGFFRTHAGIEQAISRGLAYAPYADLVWCETSTPDLELARRFAQAIHAKYPGKLLAYNCSPSFNWQKNLDDKTIASFQQQLSDMGYKFQFITLAGIHSMWFNMFDLANAYAQGEGMKHYVEKVQQPEFAAAKDGYTFVSHQQEVGTGYFDKVTTIIQGGTSSVTALTGSTEESQF” it was “soluble”; in that of “MDGLDYFEPNPDYRVAATVEVDDSDETITMETTAEGERLYERVARLTFEVPDASDNRDEHTLVAYQRVDQRGDGSLFVPFRDKTTGQQTYPAGRYMELHYEGDLEDGATVPLDFNLAYNPFCAYSDAYECPLPPQENWLEIVVPAGERDDQLEHHHHHH”, “soluble”.
